Assay [1] addresses recombinant human Nectin-4 protein (human) (UniProt Q96NY8). The assay is described as follows: ELISA, antigen coated at 5 ug/ml, antibody 10 ng/ml.
Assay [2] has the same target. The experiment in a line: ELISA, antigen coated at 5 ug/ml, antibody 100 ng/ml.
The target in assay [3] is T1, Nectin-4 in human tissue sections (human, UniProt Q96NY8 32-510).
T1 construct: Endogenous Nectin-4 in formalin-fixed, paraffin-embedded human tissue sections (cell membrane and/or cytoplasm), as stained by immunohistochemistry; also called target protein Nectin-4; Nectin-4 in normal human tissues and tumor tissues
T1 sequence: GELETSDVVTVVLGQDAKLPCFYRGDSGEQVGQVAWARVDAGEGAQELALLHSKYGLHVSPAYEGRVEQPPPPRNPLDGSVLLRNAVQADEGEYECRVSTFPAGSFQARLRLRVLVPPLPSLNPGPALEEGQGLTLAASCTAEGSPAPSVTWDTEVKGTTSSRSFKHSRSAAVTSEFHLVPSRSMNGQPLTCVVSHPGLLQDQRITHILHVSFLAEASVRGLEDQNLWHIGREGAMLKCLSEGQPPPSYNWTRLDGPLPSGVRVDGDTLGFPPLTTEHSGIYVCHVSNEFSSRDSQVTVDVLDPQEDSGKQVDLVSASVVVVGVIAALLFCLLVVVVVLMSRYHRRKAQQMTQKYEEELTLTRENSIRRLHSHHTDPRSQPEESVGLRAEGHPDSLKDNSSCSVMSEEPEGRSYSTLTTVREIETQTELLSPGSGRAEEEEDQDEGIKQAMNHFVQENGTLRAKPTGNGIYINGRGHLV
The assay is described as follows: IHC, normal human pancreas, antibody 1 ug/ml.

The target in assay [4] is recombinant human Nectin-4 protein (human) (UniProt Q96NY8). The experiment in a line: ELISA, antigen coated at 5 ug/ml, antibody 1000 ng/ml.
Assay [5] has the same target. The experiment in a line: ELISA, antigen coated at 5 ug/ml, antibody 10000 ng/ml.
In assay [6] the target is T2, human Nectin-4 expressed by PC-3-Nectin-4 cells (human, UniProt Q96NY8 32-510).
T2 construct: Full-length human Nectin-4 gene (NCBI Gene ID 81607, 1533 bp) knocked into PC-3 cells; On intact cells in flow cytometry; in denatured cell lysate in Western blotting; also called Nectin-4-expressing cells; Nectin-4-positive cells
T2 sequence: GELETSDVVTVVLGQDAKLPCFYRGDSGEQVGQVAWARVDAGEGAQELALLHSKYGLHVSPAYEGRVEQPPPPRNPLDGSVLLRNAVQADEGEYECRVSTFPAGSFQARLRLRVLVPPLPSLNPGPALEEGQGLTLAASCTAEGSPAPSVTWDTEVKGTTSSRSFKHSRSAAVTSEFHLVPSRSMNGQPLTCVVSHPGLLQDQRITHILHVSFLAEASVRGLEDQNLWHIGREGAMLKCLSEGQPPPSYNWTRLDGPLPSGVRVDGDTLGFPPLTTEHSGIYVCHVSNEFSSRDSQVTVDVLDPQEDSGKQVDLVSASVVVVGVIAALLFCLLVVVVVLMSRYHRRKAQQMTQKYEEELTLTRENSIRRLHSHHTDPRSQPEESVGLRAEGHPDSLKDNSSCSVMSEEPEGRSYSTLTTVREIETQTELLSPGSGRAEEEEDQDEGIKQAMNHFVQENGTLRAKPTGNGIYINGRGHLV
The experiment in a line: flow cytometry on PC-3-Nectin-4 cells, antibody 5 ug/ml.

The target in assay [7] is recombinant human Nectin-4 protein (human) (UniProt Q96NY8). The experiment in a line: ELISA, antigen coated at 5 ug/ml, antibody 0 ng/ml (blank control).
The target of assay [8] is T1, Nectin-4 in human tissue sections. The experiment in a line: IHC, normal human skin, antibody 1 ug/ml.
For assay [9] the target is unchanged. The experiment in a line: IHC, normal human salivary gland, 3 samples, antibody 1 ug/ml.

B1: Antibody R012 (antibody, V domains shown)
VH: SKSVEESGGRLVTPGTPLTLTCTVSGFSLSTYAMSWVRQAPGKGLEYIGIISGRGTTYYASWLKGRFTISKTSTTVDLKITSPTTEDTATYFCARDAGISDVYTGYFNLWGQGTLVTVSS
VL: QPVLAQLPSASAALGASAKLTCTLSSAHRTYTIAWYQQQQGEAPRYLMMLKSDGSYTKGTGVPDRFSGSSSGADRYLIISSVQAADEADYYCGADDSGGYVFGGGTQLTVTG
notes: Rabbit monoclonal antibody from a phage library; heavy chain constant region is rabbit IgG; also called Nectin-4 rabbit monoclonal antibody R012; rabbit antibody R012
In the case of B1, the OD detection value (OD450 nm-650 nm) was 0.748 in assay [1]; 1.44 in [2]; 1.56 in assay [4]; 1.51 in [5]; 0.008 in assay [7]. The binding result in [3] and in assay [6] was “binds” throughout.

B2: Antibody R036 (antibody, V domains shown)
VH: SQSVEESGGRLVTPGTPLTLTCTVSGFSLSSYAMSWVRQAPGKGLEYIGIIGGRGTTYYAIWAKGRFTISKTSTTVDLKITSPTTEDTATYFCARDAGTTYVGTTYVATGYFNLWGQGTLVTVSS
VL: QPVLTQPPSASAALGASAKLTCTLSSAHKTYTIAWYQQQQGEAPRYLMILKSDGSYTRGTGVPDRFSGSSSGADRYLIISSVQADDEADYYCGADDSGGYVFGGGTQLTVTG
notes: Rabbit monoclonal antibody from a phage library; heavy chain constant region is rabbit IgG; also called Nectin-4 rabbit monoclonal antibody R036; rabbit antibody R036
As to B2, the binding result in [8] and in assay [6] was “binds” each time. Moreover, the OD detection value (OD450 nm-650 nm) in assay [1] was determined as 0.73; in [2], 1.48; in [4] it was 1.64; in [5], 1.63; in assay [7], 0.007.

B3: Antibody MM11 (antibody, mouse IgG1, kappa, V domains shown)
VH: DVQLQESGPGLVKPSQSLSLTCSVTGYSITSNFYWNWIRQFPGNRLEWMGYISYDGSNNYNPSLKNRISISRDTSKNQFFLKLNSVTTEDTATYYCVRADYWGQGTLVTVSA
VL: DTVMTQTPLSLPVSLGDQASISCRSSQSLESSDGHAYLNWYLQKPGQSPQLLIYRVSNRFSGVLHRFSGSGSGTDFTLKISRVEAEDLGVYFCLQFTHVPFTFGSGTKLEIKR
notes: Mouse monoclonal antibody from a hybridoma; heavy chain constant region is mouse IgG1; also called Nectin-4 mouse monoclonal antibody MM11; mouse antibody MM11
As for B3, the OD detection value (OD450 nm-650 nm) was found to be 0.58 in assay [1]; 1.64 in assay [2]; 2.05 in [4]; 1.97 in [5]; 0.008 in assay [7]. Further, the binding result in assay [6] and in assay [9] was “binds” throughout.

The record behind these values is patent EP4725964A1 (Jiangsu Mabwell Health Pharmaceutical R&D Co., Ltd., dated 2026).
